Target: human angiotensin converting enzyme 2 (hACE2) (human) (UniProt Q9BYF1)

Substance | Absorbance (λ450 nm), after background correction, Average (absorbance units) | Absorbance (λ450 nm), after background correction, Trial 1 (absorbance units) | Absorbance (λ450 nm), after background correction, Trial 2 (absorbance units) | Absorbance (λ450 nm), after background correction, Trial 3 (absorbance units) | Absorbance (λ450 nm), before background correction, Trial 1 (absorbance units) | Absorbance (λ450 nm), before background correction, Trial 2 (absorbance units) | Absorbance (λ450 nm), before background correction, Trial 3 (absorbance units)
His-tagged Delta variant SARS-CoV-2 S1S2 protein (ligand) | 0.551 | 0.538 | 0.558 | 0.557 | 0.578 | 0.598 | 0.597
His-tagged Omicron variant SARS-CoV-2 S1S2 protein (ligand) | 0.489 | 0.482 | 0.49 | 0.494 | 0.522 | 0.53 | 0.534
